T1: human IL-2 receptor (IL-2Rα/IL-2Rβ/γc) (human, UniProt P01589 22-272; P14784 27-551; P31785 23-369)
T1 sequence 1: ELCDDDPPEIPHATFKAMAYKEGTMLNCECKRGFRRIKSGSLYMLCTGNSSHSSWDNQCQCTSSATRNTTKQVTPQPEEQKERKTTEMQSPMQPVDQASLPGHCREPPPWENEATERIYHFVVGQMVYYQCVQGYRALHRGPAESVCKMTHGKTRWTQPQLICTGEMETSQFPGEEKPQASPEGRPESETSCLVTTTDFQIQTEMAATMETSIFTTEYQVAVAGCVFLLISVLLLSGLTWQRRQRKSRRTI
T1 sequence 2: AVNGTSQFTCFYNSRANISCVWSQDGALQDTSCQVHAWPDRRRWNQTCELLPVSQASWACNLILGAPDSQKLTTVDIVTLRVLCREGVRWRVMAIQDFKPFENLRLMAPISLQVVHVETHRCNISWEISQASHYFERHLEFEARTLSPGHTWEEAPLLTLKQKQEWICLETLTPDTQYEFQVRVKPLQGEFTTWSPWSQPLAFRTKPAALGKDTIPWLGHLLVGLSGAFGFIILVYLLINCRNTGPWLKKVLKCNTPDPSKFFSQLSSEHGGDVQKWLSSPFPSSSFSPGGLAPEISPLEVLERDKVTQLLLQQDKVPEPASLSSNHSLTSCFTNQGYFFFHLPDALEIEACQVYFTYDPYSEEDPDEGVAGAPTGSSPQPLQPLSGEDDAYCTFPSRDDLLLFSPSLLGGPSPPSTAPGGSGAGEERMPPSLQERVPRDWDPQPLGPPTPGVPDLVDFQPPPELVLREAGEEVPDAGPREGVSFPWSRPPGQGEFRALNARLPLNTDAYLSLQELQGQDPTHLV
T1 sequence 3: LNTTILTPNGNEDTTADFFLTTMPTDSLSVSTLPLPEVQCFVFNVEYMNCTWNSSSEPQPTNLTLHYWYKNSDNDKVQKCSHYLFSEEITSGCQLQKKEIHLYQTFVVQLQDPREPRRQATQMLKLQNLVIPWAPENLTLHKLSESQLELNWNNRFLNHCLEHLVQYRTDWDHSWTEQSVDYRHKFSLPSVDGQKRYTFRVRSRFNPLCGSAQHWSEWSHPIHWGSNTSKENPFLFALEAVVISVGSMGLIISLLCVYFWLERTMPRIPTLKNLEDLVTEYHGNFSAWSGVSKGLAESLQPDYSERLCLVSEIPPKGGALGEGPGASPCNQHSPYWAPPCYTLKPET


Target: T1, human IL-2 receptor (IL-2Rα/IL-2Rβ/γc)
Test: cell-based or functional assay

Row | Binder | EC50 (nM) pSTAT5, NK, human PBMCs [nM] | EC50 (nM) pSTAT5, Treg, human PBMCs | Fold Max signal (% pSTAT5+) Treg/NK [fold] | Max signal (% pSTAT5+), NK [% pSTAT5+] | Max signal (% pSTAT5+), Treg [% pSTAT5+] | fold EC50 NK/Treg [fold]
1 | DC00085 (other) chain 1: EVQLVESGGGLVQAGGSLRLSCAASGGSIYTYNMGWFRQAPGKEREFVAGTLWSGGDSVYADFAKGRFTLSRENAKNTLYLQMNSLKPEDTATYYCAIDPLSLTSDWRVDELSSWGKGTLVTVSSDKTHTCPPCPAPEAAGGPSVFLFPPKPKDTLMISRTPEVTCVVVDVSHEDPEVKFNWYVDGVEVHNAKTKPREEQYNSTYRVVSVLTVLHQDWLNGKEYKCKVSNKALGAPIEKTISKAKGQPREPQVYTLPPSRDELTKNQVSLTCLVKGFYPSDIAVEWESNGQPENNYKTTPPVLDSDGSFLLYSKLTVDKSRWQQGNVFSCSVMHEALHNHYTQKSLSLSPGK chain 2: EVQLVESGGGLVQTGGSLRLSCAASGGTFSRDAMAWFRQVPGKEREFVALISWSGATTNYADSVKGRFAISRDNGKNTVYLQMNRLKPADTAIYYCAADRRPMGSRSYFEPTEYDDWGQGTQVTVSSGGGGSGGGGSGGGGSQVQLVESGGGLVQPGGSLRLSCATSGFTFRNNFMSWVRQAPGKGLEWVSTISYGGESTTYAESVKGRFTISRDNAKNTLYLQMNNLKPEDTAVYYCAKATSYDSIRSGSRGQGTQVTVSSGGGGSGGGGSGGGGSQVQLVESGGGLVQAGGSLTLSCAAPGRTFGTDVVGWFRQAPGKEREFVASISRSGDGIYYDDSVKGRFTISRNNAWNTVNLQMNSLKVEDTAVYYCAAGDGWSTYDYWGQGTQVTVSSGGGGSGGGGSGGGGSDKTHTCPPCPAPEAAGGPSVFLFPPKPKDTLMISRTPEVTCVVVDVSHEDPEVKFNWYVDGVEVHNAKTKPREEQYNSTYRVVSVLTVLHQDWLNGKEYKCKVSNKALGAPIEKTISKAKGQPREPQVYTLPPSRDELTKNQVSLTCLVKGFYPSDIAVEWESNGQPENNYKTTPPVLDSDGSFFLYSRLTVDKSRWQQGNVFSCSVMHEALHNHYTQKSLSLSPGK | 0.663 | 0.0313 nM | 4 | 2.19 | 8.49 | 21
2 | DC00086 (other) chain 1: EVQLVESGGGLVQAGGSLRLSCAASGGSIYTYNMGWFRQAPGKEREFVAGTLWSGGDSVYADFAKGRFTLSRENAKNTLYLQMNSLKPEDTATYYCAIDPLSLTSDWRVDELSSWGKGTLVTVSSDKTHTCPPCPAPEAAGGPSVFLFPPKPKDTLMISRTPEVTCVVVDVSHEDPEVKFNWYVDGVEVHNAKTKPREEQYNSTYRVVSVLTVLHQDWLNGKEYKCKVSNKALGAPIEKTISKAKGQPREPQVYTLPPSRDELTKNQVSLTCLVKGFYPSDIAVEWESNGQPENNYKTTPPVLDSDGSFLLYSKLTVDKSRWQQGNVFSCSVMHEALHNHYTQKSLSLSPGK chain 2: QVQLVESGGGLVQPGGSLRLSCATSGFTFRNNFMSWVRQAPGKGLEWVSTISYGGESTTYAESVKGRFTISRDNAKNTLYLQMNNLKPEDTAVYYCAKATSYDSIRSGSRGQGTQVTVSSGGGGSGGGGSGGGGSQVQLVESGGGLVQAGGSLTLSCAAPGRTFGTDVVGWFRQAPGKEREFVASISRSGDGIYYDDSVKGRFTISRNNAWNTVNLQMNSLKVEDTAVYYCAAGDGWSTYDYWGQGTQVTVSSGGGGSGGGGSGGGGSEVQLVESGGGLVQTGGSLRLSCAASGGTFSRDAMAWFRQVPGKEREFVALISWSGATTNYADSVKGRFAISRDNGKNTVYLQMNRLKPADTAIYYCAADRRPMGSRSYFEPTEYDDWGQGTQVTVSSGGGGSGGGGSGGGGSDKTHTCPPCPAPEAAGGPSVFLFPPKPKDTLMISRTPEVTCVVVDVSHEDPEVKFNWYVDGVEVHNAKTKPREEQYNSTYRVVSVLTVLHQDWLNGKEYKCKVSNKALGAPIEKTISKAKGQPREPQVYTLPPSRDELTKNQVSLTCLVKGFYPSDIAVEWESNGQPENNYKTTPPVLDSDGSFFLYSRLTVDKSRWQQGNVFSCSVMHEALHNHYTQKSLSLSPGK | 0.187 | 0.00441 nM | 9 | 4.9 | 44.1 | 42

More lines, now with the values ahead:

Row | EC50 (nM) pSTAT5, NK, human PBMCs [nM] | EC50 (nM) pSTAT5, Treg, human PBMCs | Fold Max signal (% pSTAT5+) Treg/NK [fold] | Max signal (% pSTAT5+), NK [% pSTAT5+] | Max signal (% pSTAT5+), Treg [% pSTAT5+] | fold EC50 NK/Treg [fold] | Binder
3 | 0.00972 |  | 3 | 1.4 | 4.37 |  | DC00087 (other) chain 1: EVQLVESGGGLVQAGGSLRLSCAASGGSIYTYNMGWFRQAPGKEREFVAGTLWSGGDSVYADFAKGRFTLSRENAKNTLYLQMNSLKPEDTATYYCAIDPLSLTSDWRVDELSSWGKGTLVTVSSDKTHTCPPCPAPEAAGGPSVFLFPPKPKDTLMISRTPEVTCVVVDVSHEDPEVKFNWYVDGVEVHNAKTKPREEQYNSTYRVVSVLTVLHQDWLNGKEYKCKVSNKALGAPIEKTISKAKGQPREPQVYTLPPSRDELTKNQVSLTCLVKGFYPSDIAVEWESNGQPENNYKTTPPVLDSDGSFLLYSKLTVDKSRWQQGNVFSCSVMHEALHNHYTQKSLSLSPGK chain 2: QVQLVESGGGLVQPGGSLRLSCATSGFTFRNNFMSWVRQAPGKGLEWVSTISYGGESTTYAESVKGRFTISRDNAKNTLYLQMNNLKPEDTAVYYCAKATSYDSIRSGSRGQGTQVTVSSGGGGSGGGGSGGGGSEVQLVESGGGLVQTGGSLRLSCAASGGTFSRDAMAWFRQVPGKEREFVALISWSGATTNYADSVKGRFAISRDNGKNTVYLQMNRLKPADTAIYYCAADRRPMGSRSYFEPTEYDDWGQGTQVTVSSGGGGSGGGGSGGGGSQVQLVESGGGLVQAGGSLTLSCAAPGRTFGTDVVGWFRQAPGKEREFVASISRSGDGIYYDDSVKGRFTISRNNAWNTVNLQMNSLKVEDTAVYYCAAGDGWSTYDYWGQGTQVTVSSGGGGSGGGGSGGGGSDKTHTCPPCPAPEAAGGPSVFLFPPKPKDTLMISRTPEVTCVVVDVSHEDPEVKFNWYVDGVEVHNAKTKPREEQYNSTYRVVSVLTVLHQDWLNGKEYKCKVSNKALGAPIEKTISKAKGQPREPQVYTLPPSRDELTKNQVSLTCLVKGFYPSDIAVEWESNGQPENNYKTTPPVLDSDGSFFLYSRLTVDKSRWQQGNVFSCSVMHEALHNHYTQKSLSLSPGK
4 | 0.572 | < 0.1 pM | 9 | 2.67 | 23.5 | > 5720 | DC00090 (other) chain 1: QLQLVESGGGLVQAGDSLRLSCAASGFNFGWHAMGWFRQAPGKEREFVATITWTGRDTYYADSVRGRFTISKDNAKDTLFLQMNSLRPDDTGVYYCAKARERATWAYSEDDCDYWGQGTQVTVSSDKTHTCPPCPAPEAAGGPSVFLFPPKPKDTLMISRTPEVTCVVVDVSHEDPEVKFNWYVDGVEVHNAKTKPREEQYNSTYRVVSVLTVLHQDWLNGKEYKCKVSNKALGAPIEKTISKAKGQPREPQVYTLPPSRDELTKNQVSLTCLVKGFYPSDIAVEWESNGQPENNYKTTPPVLDSDGSFLLYSKLTVDKSRWQQGNVFSCSVMHEALHNHYTQKSLSLSPGK chain 2: EVQLVESGGGLVQTGGSLRLSCAASGGTFSRDAMAWFRQVPGKEREFVALISWSGATTNYADSVKGRFAISRDNGKNTVYLQMNRLKPADTAIYYCAADRRPMGSRSYFEPTEYDDWGQGTQVTVSSGGGGSGGGGSGGGGSQVQLVESGGGLVQPGGSLRLSCATSGFTFRNNFMSWVRQAPGKGLEWVSTISYGGESTTYAESVKGRFTISRDNAKNTLYLQMNNLKPEDTAVYYCAKATSYDSIRSGSRGQGTQVTVSSGGGGSGGGGSGGGGSQVQLVESGGGLVQAGGSLTLSCAAPGRTFGTDVVGWFRQAPGKEREFVASISRSGDGIYYDDSVKGRFTISRNNAWNTVNLQMNSLKVEDTAVYYCAAGDGWSTYDYWGQGTQVTVSSGGGGSGGGGSGGGGSDKTHTCPPCPAPEAAGGPSVFLFPPKPKDTLMISRTPEVTCVVVDVSHEDPEVKFNWYVDGVEVHNAKTKPREEQYNSTYRVVSVLTVLHQDWLNGKEYKCKVSNKALGAPIEKTISKAKGQPREPQVYTLPPSRDELTKNQVSLTCLVKGFYPSDIAVEWESNGQPENNYKTTPPVLDSDGSFFLYSRLTVDKSRWQQGNVFSCSVMHEALHNHYTQKSLSLSPGK

From patent US20240409645A1 (DUALYX, published 2024)
